Assay results: PMC8062530 (2021)

Experiments:
Assay in all cases: BLI
Siglec-14 Fc-fusion = target: T1, Siglec-14 Fc-fusion (UniProt Q08ET2 17-358)
T1 chain: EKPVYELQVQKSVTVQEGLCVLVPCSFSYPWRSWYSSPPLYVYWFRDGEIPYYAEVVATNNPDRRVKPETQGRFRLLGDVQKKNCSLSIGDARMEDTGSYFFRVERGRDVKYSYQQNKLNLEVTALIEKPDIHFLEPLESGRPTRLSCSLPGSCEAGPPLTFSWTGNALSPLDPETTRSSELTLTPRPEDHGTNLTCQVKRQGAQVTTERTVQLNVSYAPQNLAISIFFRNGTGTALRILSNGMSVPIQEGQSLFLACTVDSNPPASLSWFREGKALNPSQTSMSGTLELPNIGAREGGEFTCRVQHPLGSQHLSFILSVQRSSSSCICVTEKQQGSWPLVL

Siglec-10 Fc-fusion = target: T2, Siglec-10 Fc-fusion (UniProt Q96LC7 17-550)
T2 chain: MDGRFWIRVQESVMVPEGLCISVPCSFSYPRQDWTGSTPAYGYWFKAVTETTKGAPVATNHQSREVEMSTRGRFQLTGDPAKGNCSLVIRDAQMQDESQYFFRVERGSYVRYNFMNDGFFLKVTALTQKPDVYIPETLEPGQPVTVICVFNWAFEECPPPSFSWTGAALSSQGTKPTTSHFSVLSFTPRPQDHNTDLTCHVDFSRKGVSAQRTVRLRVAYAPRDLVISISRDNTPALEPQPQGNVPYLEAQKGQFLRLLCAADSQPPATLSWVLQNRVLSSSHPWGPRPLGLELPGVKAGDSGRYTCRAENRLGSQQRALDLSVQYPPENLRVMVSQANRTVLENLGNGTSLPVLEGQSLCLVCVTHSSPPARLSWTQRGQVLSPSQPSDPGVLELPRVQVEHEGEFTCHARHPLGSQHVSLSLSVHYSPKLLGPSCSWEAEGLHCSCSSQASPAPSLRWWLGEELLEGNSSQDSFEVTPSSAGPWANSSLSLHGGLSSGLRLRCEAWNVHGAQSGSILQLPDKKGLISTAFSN

Siglec-9 Fc-fusion = Siglec-9 Fc-fusion (UniProt Q9Y336 18-348)
Siglec-9 Fc-fusion, sequence (Q9Y336 18-348): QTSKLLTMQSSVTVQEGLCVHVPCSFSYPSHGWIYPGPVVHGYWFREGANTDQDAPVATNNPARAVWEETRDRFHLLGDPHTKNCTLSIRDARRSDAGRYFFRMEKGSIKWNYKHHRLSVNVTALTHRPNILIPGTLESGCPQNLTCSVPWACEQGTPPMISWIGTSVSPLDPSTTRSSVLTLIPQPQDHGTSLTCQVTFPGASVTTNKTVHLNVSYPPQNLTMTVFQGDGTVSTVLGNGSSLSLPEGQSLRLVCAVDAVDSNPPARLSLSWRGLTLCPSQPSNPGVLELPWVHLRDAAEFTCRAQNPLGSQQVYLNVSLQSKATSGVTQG

B1: extracellular domain of PTGFRN (aa 26-832) with a C-terminal histidine tag (domain or fragment)
chain: VPTATLVRVVGTELVIPCNVSDYDGPSEQNFDWSFSSLGSSFVELASTWEVGFPAQLYQERLQRGEILLRRTANDAVELHIKNVQPSDQGHYKCSTPSTDATVQGNYEDTVQVKVLADSLHVGPSARPPPSLSLREGEPFELRCTAASASPLHTHLALLWEVHRGPARRSVLALTHEGRFHPGLGYEQRYHSGDVRLDTVGSDAYRLSVSRALSADQGSYRCIVSEWIAEQGNWQEIQEKAVEVATVVIQPSVLRAAVPKNVSVAEGKELDLTCNITTDRADDVRPEVTWSFSRMPDSTLPGSRVLARLDRDSLVHSSPHVALSHVDARSYHLLVRDVSKENSGYYYCHVSLWAPGHNRSWHKVAEAVSSPAGVGVTWLEPDYQVYLNASKVPGFADDPTELACRVVDTKSGEANVRFTVSWYYRMNRRSDNVVTSELLAVMDGDWTLKYGERSKQRAQDGDFIFSKEHTDTFNFRIQRTTEEDRGNYYCVVSAWTKQRNNSWVKSKDVFSKPVNIFWALEDSVLVVKARQPKPFFAAGNTFEMTCKVSSKNIKSPRYSVLIMAEKPVGDLSSPNETKYIISLDQDSVVKLENWTDASRVDGVVLEKVQEDEFRYRMYQTQVSDAGLYRCMVTAWSPVRGSLWREAATSLSNPIEIDFQTSGPIFNASVHSDTPSVIRGDLIKLFCIITVEGAALDPDDMAFDVSWFAVHSFGLDKAPVLLSSLDRKGIVTTSRRDWKSDLSLERVSVLEFLLQVHGSEDQDFGNYYCSVTPWVKSPTGSWQKEAEIHSKPVFITVKMDVLNAFKYP
Work on B1 yielded a Kd (Siglec-14 Fc-fusion) of 1100 nM, a Kd (Siglec-10 Fc-fusion) of 760 nM and a Kd (Siglec-9 Fc-fusion) of 4200 nM.
